Literature values, collected in PMC7337045.

Target: IRS-1 phosphopeptide (UniProt P35570)
Sequence (P35570 whole entry, looked up, tested part not stated): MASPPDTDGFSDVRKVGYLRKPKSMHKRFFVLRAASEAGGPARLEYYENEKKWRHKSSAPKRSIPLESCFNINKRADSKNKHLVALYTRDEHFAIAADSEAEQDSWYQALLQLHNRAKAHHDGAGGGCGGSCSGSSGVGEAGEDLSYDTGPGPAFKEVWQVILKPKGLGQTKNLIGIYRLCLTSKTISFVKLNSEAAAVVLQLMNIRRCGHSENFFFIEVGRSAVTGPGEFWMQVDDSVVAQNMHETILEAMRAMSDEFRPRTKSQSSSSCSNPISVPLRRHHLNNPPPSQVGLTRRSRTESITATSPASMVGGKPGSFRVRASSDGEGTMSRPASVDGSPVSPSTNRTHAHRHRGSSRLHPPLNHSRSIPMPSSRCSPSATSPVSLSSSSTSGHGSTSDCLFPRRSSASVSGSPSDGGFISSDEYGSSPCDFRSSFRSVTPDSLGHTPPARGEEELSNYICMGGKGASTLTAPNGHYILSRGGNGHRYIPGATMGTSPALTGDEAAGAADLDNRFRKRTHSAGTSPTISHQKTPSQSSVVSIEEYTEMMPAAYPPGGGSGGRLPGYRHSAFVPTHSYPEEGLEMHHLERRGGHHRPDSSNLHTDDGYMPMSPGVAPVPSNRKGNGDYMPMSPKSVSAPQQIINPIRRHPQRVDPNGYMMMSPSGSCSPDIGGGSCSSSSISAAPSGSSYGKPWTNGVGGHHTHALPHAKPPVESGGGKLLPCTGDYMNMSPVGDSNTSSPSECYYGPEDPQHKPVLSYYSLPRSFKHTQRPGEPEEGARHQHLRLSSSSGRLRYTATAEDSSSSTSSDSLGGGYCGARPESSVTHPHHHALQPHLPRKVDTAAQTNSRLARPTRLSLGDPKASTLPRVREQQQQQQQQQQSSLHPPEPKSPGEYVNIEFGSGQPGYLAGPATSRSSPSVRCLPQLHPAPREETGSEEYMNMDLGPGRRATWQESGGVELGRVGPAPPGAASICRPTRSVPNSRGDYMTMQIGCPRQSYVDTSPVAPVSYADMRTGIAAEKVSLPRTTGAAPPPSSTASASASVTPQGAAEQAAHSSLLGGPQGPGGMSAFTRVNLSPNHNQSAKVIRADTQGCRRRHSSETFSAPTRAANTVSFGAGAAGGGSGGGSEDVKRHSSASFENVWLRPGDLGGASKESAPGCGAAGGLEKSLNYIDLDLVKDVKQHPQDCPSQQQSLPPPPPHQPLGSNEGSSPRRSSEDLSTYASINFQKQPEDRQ

Kd: 14 nM
Substance: SHP2 N-SH2 (from UniProt Q06124)
